Assay: In vitro drug permeation studies across caco-2 monolayer on Transwell inserts
Type: in vitro ADME, Human
Details: PEGDMA 15% Texas red-BSA, 30% FITC-BSA, 45% DNP-BSA reservoirs of same device; FIG. 6
Experimental: In vitro drug permeation studies. The drug loaded microdevices were released within 2 min from the wafers using 8 M potassium hydroxide (KOH) solution that was preheated to 40° C. The released microdevices being less dense than water was ultracentrifuged (30 kDa Amicon ultra centrifugal filters) and washed with PBS twice for release and permeation studies. Human colorectal adenocarcinoma epithelial cells (caco-2 ATCC) were grown to confluency (transepithelial electrical resistance plateau at 900-1000Ω) on 50% collagen-ethanol (Type 1, Becton Dickinson, Franklin Lakes, N.J.) treated 24-well Transwell® inserts. The caco-2 cells were maintained in Modified Eagle's Media (MEM) with 20% fetal bovine serum (Invitrogen), 2 mM L-glutamine, 1.5 g/L sodium bicarbonate, 2.5 g/L glucose, 10 mM HEPES buffer, 1.0 mM sodium pyruvate, and 1 mg/mL penicillin/streptomycin for 5 days or more prior to seeding. […] Discrete time (20 min) samples were taken from both the upper and lower chamber of the Transwell® for the different drug loaded systems and observed for fluorescence using a Packard Fluorocount Microplate Fluorometer (Meriden, Conn.).
To measure the drug elution kinetics of the various microdevices, release of the different fluorophore tagged BSAs were monitored, in vitro, from hydrogel laden microdevices. […]

Row | Substance | relative release rate at different crosslinking ratio
1 | FITC-BSA: fluorescently labeled bovine serum albumin, model fluorophore-drug | released faster than DNP-BSA
2 | Texas red-BSA: fluorescently labeled bovine serum albumin, model fluorophore-drug | released faster than FITC-BSA
